Test results taken from the supplement of paper PMC9170038.

Tested on: K4 kissing-loop RNA reporter
Assay: apparent KD of K4 kissing-loop reporter; higher = weaker reporter binding
Settings: Eterna round: R107
Protocol: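 RNA-MaP round R107: designed RNA switches with theophylline, tryptophan, arginine or FMN aptamers are transcribed on-chip within common flanks. They are titrated with a labelled K4 kissing-loop RNA reporter in RNA-MaP buffer (100 mM Tris pH 7.5, 80 mM KCl, 4 mM MgCl2), without ligand or with the indicated ligand. Median apparent KD per design.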

[1] = input ligand: theophylline 20 uM
[2] = input ligand: tryptophan 2.4 mM
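Note: bound reporter read as fluorescence of individual clusters on recovered sequencing chips by microscopy, with normalized cluster intensities fitted with a binding model.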

Sequence	apparent KD of K4 kissing-loop reporter (input ligand: FMN 200 uM) [µM]	apparent KD of K4 kissing-loop reporter (input ligand: arginine 13.2 mM) [µM]	apparent KD of K4 kissing-loop reporter (input ligand: none) [µM]	apparent KD of K4 kissing-loop reporter [1] [µM]	apparent KD of K4 kissing-loop reporter [2] [µM]
AUGCAUCAGACUUGAUACGGUGAAAUAGCCCGAGGACCGGUACGGCCGCCACUCGGUCCAGUGAUGUUGGAUAAUUAAUCUAGGU [theeternabot_sameState_KL_Trp_A_34]	0.197	0.256	0.297	0.294	0.0824
UGAUACCAGACUGAUACCAGCUAGUGAUGUUAGCUGAAACAGGAACAGGCAAAGCCUGCUAGCCCUUGGCAGCAGUCUGGUAUCU [TheoBX 11 #SwitchBubble #StaticStem]	0.0915	0.0906	0.0969	0.152	0.0853
GAUUCCCAAGCGGCCGCCACUUAUAGUGAUGUUAUAGGGACUGCGGAUCAGGACAAUCAUACAUAAAGGACCGGGCUAUUCUGAC [theeternabot_exclusion_KL_Trp_B_1]	0.264	0.246	0.305	0.255	0.261
UGGAUGUAGUGAUGUUAUAUAGAGAGUGAUACCAGUUUAGAGAAGAACCCUUGGCAGCAUAGAAGAGUAUCAUUGGAGAAGAAUG [ExTheophyl.Ar]	0.308	0.347	0.32	0.334	0.244
AAAGACUGACUGCAAUUAGCAGUCAGUCAACGAGGACCGGUACGGCCGCCACUCGGGUCCUAGAGUGAUGUUCUAAUAAUAUAAU [Default title]	0.279	0.367	0.432	0.466	0.167
GGCGCUGUCUGUGCCGCCCUCCUCGUCCCUCGAGGACCGGUACGGCCGCCACUCGAGUGAUGUUCGGGUAGCCCUCCCUGCCAGC [BDazzled - #22 Exc. Tryptophan A]	0.462	0.32	0.492	0.382	0.233
AUUUUGGUUUAGAGUGAUGUUCCUUGUAUUCGAGGACCGGUACGGCCGCCACUCGAAUAGAAAAGAAAAGAAAUGUGUGAUGUUU [BDazzled - #5 SS Tryptophan A]	0.772	0.611	0.9	0.764	0.567
UGUGAUGUGUAGAGUGAUGUUUUGAAGGAUACCAGAGUGUUGUUAUUCCCUUGGCAGCUUGAGUGAUGUUUGAUGUUGUUGUUGU [efvrmullin]	0.228	0.12	0.194	0.133	0.152
UCCUGCAAUCCGCCACGAAAGUGGAUGGAUACCAGAGUCGAAAGACUCCCUUGGCAGCCAGUGAUGUUGGAAGCAGGUAAAUAAA	0.819	0.645	0.715	0.656	0.596
CAUUCGAAAUGCAGUGAUGUUGCAACUGAUACCAGUAUCGAAAGAUACCCUUGGCAGCGGAAAACCGCUACGUUUUUUUUGAAUG [Ex Theophylline A K4 24]	0.191	0.312	0.312	0.357	0.176
AGUGAUAUAUGAGGAUAUGGGUUUGUUAAAGAGUUAGUUUUAGUGUUGUUUGGUUAGUGAUGUUAUUUAGAAGGCGUGAGUGAUG [foopmullin]	0.0972	0.0825	0.076	0.115	0.0729
GCAGUGAUGUUGCUGGUGUGCAGUGGUAGUCGAGGACCGGUACGGCCGCCACUCGGUGAGAACCUGCUAAUACAUCGAUAAGUGA [XVIII]	0.55	0.369	0.738	0.463	0.558
UGUAAGUGUCAGCGAGUGAUGUUCGACGAUACCAGACUCGAUAGAGUCCCUUGGCAGCGUAAUGCAUGCCAAACUGGCACAUACU [#SwitchBubble 11 #K4Early]	0.453	0.438	0.56	0.528	0.434
UAAUAAAUUCCAGCGAUAUCGCUCUUCGAAGGAGCGGGCGAAAGUCCAGGUAGGUCGCGGAGAGUGAUGUUCUUUGCGGCGCUGG [whbob_Ex_Arginine_A_2t134]	0.408	0.315	0.4	0.407	0.244
CGUGAGGACCUGAGGUGAUGUAUAGUAUCGCGAGGACCGGUACGGCCGCCACUCGUGAAGAGAAAGGAGUGAUGUUCCGUAAGGG	0.474	0.47	0.471	0.677	0.138
AAGCCGGUUGCGGCCGCCACUUUUGCGGACCCGGUGCAGUGAUGUUGCGCAUCGCGGGUUGCUUAAAGGACCGGGCACCUCUAAC [theeternabot_sameState_KL_Trp_B_7]	0.418	0.359	0.401	0.363	0.327
GGUGCUGUCUGUGCCGCCCUCCUCGUUCCUCGAGGACCGGUACGGCCGCCACUCGAGUGAUGUUCGGGUAGCGAUCCCUGCUAGC [Bdazzled - #17 Exc. Tryptophan A]	0.221	0.176	0.207	0.191	0.204
CCUAUCUCAUACGAUACCAGUCAAUGAAAUUUUAUCAAUGCCAUCACCGAGUGAUGUUCGGACCCUUGGCAGCGUAUGGGAUAGG [Ex Theophylline B K4 3]	0.249	0.195	0.237	0.329	0.223
UCACGUGCCAGUGAUGUUGGCGUACGUGAUACCAGACGAAUAAAAGUCCCUUGGCAGCACAAAUAUGCCAAGUUAGAUGUAUGAU [Exclusion Theophylline A GF 2]	0.125	0.122	0.121	0.116	0.116
UGUCAUUGGUCGGCCGCCACUUCAUAAAGAGUGAUGUUCUAAAAGACGGAUCGAAAGAUCUGUCGAAGGACCGGGAUCGAUGACU [FiskerMod 11 - Jieux - Same State - Tryptophan B]	1.2	0.559	0.998	0.569	0.275
ACCUAGUAGACAGGAUAUCACCAUGACAGUGAUGUUGUCAUGCUCGAUUUGAGGAAACUCAGAUCGUGAGAAGGGUCUAACGACU [FMN B SS t7]	0.136	0.149	0.17	0.146	0.158
CUGAGCUGCAGCGAUACCAGUGUGGAGUGAUGUUCCCUGGUCCGGGCUGUUGUUCCCUUGCGCCCUUGGCAGCGCAGGAGCAGGG [Exclusion Theophylline B GF 15]	0.506	0.352	0.422	0.378	0.383

Sequence	apparent KD of K4 kissing-loop reporter (input ligand: FMN 200 uM) [µM]	apparent KD of K4 kissing-loop reporter (input ligand: arginine 13.2 mM) [µM]	apparent KD of K4 kissing-loop reporter (input ligand: none) [µM]	apparent KD of K4 kissing-loop reporter [1] [µM]	apparent KD of K4 kissing-loop reporter [2] [µM]
AAGGCCACGAGAAGGAGCGUGCUAUGGAGUGAUGUUCCAAUGUAGACCUAAGGUCUACAAGCACAGGUAGGUCGCUCGUGGUCAA [Omei KL Arginine B SS A v2]	0.102	0.0969	0.109	0.1	0.103
AUGUAUGAAUUAGGAUAUCGUGAUCCAUGCAUAUAUAUGAUAAAUGGAUAUGUCGUAGUGAUGUUACGAGAAGGAGUGUGGAGUA [KL-XFMN-B1]	0.0626	0.0715	0.0643	0.093	0.045
CUUAGGAGUGGUGUUGAUUAGGGAGCGGAAGGAGCGCCAAUGAUGGCAGGUAGGUCGCCGGAAUGUAGUGAUGUUGCAUAGAGGG [ExArgA.S]	0.476	0.225	0.415	0.236	0.267
GGCCGGCCGGGAAGGAGCGGGAGUGAUGUUUUCGCAAAGAAAGAUAUAAAAGAAACGAAAUCCCAGGUAGGUCGCCCGGCCGGUU	0.0644	0.113	0.0913	0.16	0.0664
UCCUAUACCCUUCCCGGACGCCGUGGAGAUACCAGCCACGUAGCGGGCCCUUGGCAGCUCGAGUGAUGUUCGAGAUCGUCAGGAU [Veteve]	0.136	0.124	0.127	0.128	0.135
GGGCGUGGCGCGGCCGCCACUGGGCCUGGGCGCUCGCUGAGUGAUGUUCGUCGGCGGCUGGGUCGUAGGACCGGGUGCUGGUUGG [BDazzled - #7 SS Tryptophan B]	0.529	0.309	0.438	0.424	0.302
UGUACCGAGUCAGGAUAUGGCGUCGAAAGACGAAACCAGUGAUGUUGGAAUCGAUCGAAAGAUCGUCCAGAAGGGACUUGGUACU [FmnBS 21 #SwitchBubble #StaticStem #DoubleMagnetSystem]	0.204	0.382	0.377	0.349	0.359
CAACAUCACAACUUCUUCGUCCUAGAAGACUAGGAUAUCAGGAAACUGAGAAGGAGUCUCUGCAGUGAUGUUGCAGCUAGGACGA [[K]'-[F2]'-[F1]'-[F1]-[F2]-[K1]-[K2]-[F]''_Design2b]	0.231	0.216	0.185	0.266	0.219
CCUGCAGCUGUAACCGAGUGAUGCUACGGACGAGGACCGGUACGGCCGCCACUCGCCAGUGAUGUUGGUGUGGGAGGACGUAACU [KL-XTryp-A22]	0.2	0.14	0.19	0.178	0.199
GGUAGGGCAGCUGCGGAAACGCAGCAUAUCGAGGAUAUCGGGAAACCGAGAAGGCGAGUAGUGAUGUUACUGGUUUAGCCCUACC	0.444	0.167	0.191	0.196	0.173
UCGAAAUGCGUCUCCUAGUUUCUCCGGGAAGGAGCGUGGAUAACCGCAGGUAGGUCGCCCGGGAGCCGGACCAGUGAUGUUGGUC [Exclusion Arginine A Gf 30]	0.181	0.211	0.197	0.207	0.164
GCAGUGAUGUUGCUGAUGUACAGUGGGAUACGAGGACCGGUACGGCCGCCACUCGUACAGAAUUUGUUAAUACAUCGAUAAGUGA [XV]	0.377	0.36	0.526	0.436	0.522
AGAGAGGUGUUUUUUUGAAGUGAGUAAUGGCGAGGACCGGUACGGCCGCCACUCGGGUGAUGUUAGUGAUGUUGAUGUAGUGAUG [yrymullin]	0.0793	0.0608	0.0663	0.114	0.0656
AGACUUCACCGAAGGAGCGACGUAGCCUAGUGAUGUUAGGCGCGAGAGAAAUCUCGUAUACGUCAGGUAGGUCGCGGUGAAGUCA [Omei KL Arginine B SS C v4]	0.163	0.129	0.152	0.126	0.146
AAGCUCAGCGUGACUCGAUAAGAGUCACAACGAGGACCGGUACGGCCGCCACUCGAAAUAAGAGAGUGAUGUUCUCGCUGAGCAA [#SwitchBubble 6 #StaticStem #K4Late]	0.631	0.344	0.62	0.824	0.548
GAGCCAACCGUCGAUACCAGCCGCACGUCAUUCACUCAAUGCUGAGGAGCCAGUGAUGUUGGCCCUUGGCAGCGAAGCAACGAUC [theeternabot_exclusion_KL_Theo_B_43]	0.0975	0.0918	0.0935	0.0935	0.0932
AAAUCGUUCAGAAGGAGCGUGGAUUAUUCUUAAAUAUUUAUUACGAGUGAUGUUCGUAAUUCACAGGUAGGUCGCUGAUCGAUAA [JR_ExcArginiB_Sub003]	0.102	0.137	0.106	0.121	0.105
AAAGAAGUAUACUUCAAGAGGUAUGCUGAUACCAGAGUCAAUUGACUCCCUUGGCAGCGGAUCGAGUGAUGUUCGUAACCUCAAA [AK3 SS Theophylline A]	0.118	0.178	0.153	0.192	0.117
GCCUGUGCACGAAGGAGCGCCGUGACAGGUUACUGCCUUGGGCAGUGAUGUUGCUCAAUCUGGCAGGUAGGUCGCGUGCACAGGC	0.132	0.145	0.166	0.138	0.102
AUAAAUUUGUAGUGAUGUUGCAAGUUAGUCAAGGAUAUCAGGAAACUGAGAAGGUGAUAUCUCCUUUACUUGCAACUAGGAGGAG [KL-SSFMN-A11]	0.088	0.0873	0.091	0.0908	0.0857
CAUACGCAUGGAGGAUAUGAGAUUUCUCAUAUUAUUUAAUAUUCUCAGUGAUGUUGAGAAAUAAACUCAGAAGGCCAUGUGUAUG [Ex FMN B 3]	0.256	0.365	0.313	0.405	0.304
